Substitutions are numbered along the chain they refer to. In names and notes the source's numbering stands.
B1: IgG2 full-length heavy chain E345R/Q347R/K360D/T366V/D399M/Y407A/K409V (SEQ ID NO: 100) with light chain SEQ ID NO: 61 (antibody)
heavy: QVQLQESGPGLVRPSQTLSLTCTVSGYSITSDHAWSWVRQPPGRGLEWIGYISYSGITTYNPSLKSRVTMLRDTSKNQFSLRLSSVTAADTAVYYCARSLARTTAMDYWGQGSLVTVSSASTKGPSVFPLAPCSRSTSESTAALGCLVKDYFPEPVTVSWNSGALTSGVHTFPAVLQSSGLYSLSSVVTVPSSNFGTQTYTCNVDHKPSNTKVDKTVERKCCVECPPCPAPPVAGPSVFLFPPKPKDTLMISRTPEVTCVVVDVSHEDPEVQFNWYVDGVEVHNAKTKPREEQFNSTFRVVSVLTVVHQDWLNGKEYKCKVSNKGLPAPIEKTISKTKGQPRRPRVYTLPPSREEMTDNQVSLVCLVKGFYPSDIAVEWESNGQPENNYKTTPPMLMSDGSFFLASVLTVDKSRWQQGNVFSCSVMHEALHNHYTQKSLSLSP
light: not shown
notes: also called Sample No. 234
B2: IgG2 full-length heavy chain Q347E/S354Y/T366Y/Y407T (SEQ ID NO: 99) with light chain SEQ ID NO: 61 (antibody)
heavy: B1 heavy with R343E, R345E, S352Y, D358K, V364Y, M397D, A405T, V407K
light: not shown
notes: also called Sample No. 233
B3: L234F/L235E/P331S (suppress FcγR binding) Fc fragment with T394W/F405A, SEQ ID NO: 600 (other)
chain: DKTHTCPPCPAPEFEGGPSVFLFPPKPKDTLMISRTPEVTCVVVDVSHEDPEVKFNWYVDGVEVHNAKTKPREEQYNSTYRVVSVLTVLHQDWLNGKEYKCKVSNKALPASIEKTISKAKGQPREPQVYTLPPSREEMTKNQVSLTCLVKGFYPSDIAVEWESNGQPENNYKTWPPVLDSDGSFALYSKLTVDKSRWQQGNVFSCSVMHEALHNHYTQKSLSLSP
B4: L234F/L235E/P331S (suppress FcγR binding) Fc fragment with T366W/L368A/Y407V, SEQ ID NO: 601 (other)
chain: B3 chain with T146W, L148A, W174T, A185F, Y187V
B5: L234F/L235E/P331S (suppress FcγR binding) Fc fragment with Q347R/K360E/D399V/F405T/K409W, SEQ ID NO: 602 (other)
chain: B3 chain with Q127R, K140E, W174T, D179V, A185T, K189W
B6: L234F/L235E/P331S (suppress FcγR binding) Fc fragment with E356K/K392D/D399K/K439E, SEQ ID NO: 603 (other)
chain: B3 chain with E136K, K172D, W174T, D179K, A185F, K219E
B7: E345R/E430G/S440Y (promote hexamer formation) Fc fragment, SEQ ID NO: 165 (other)
chain: B3 chain with F14L, E15L, S111P, E125R, W174T, A185F, E210G, S220Y
notes: No homodimer-promoting modification ('-'); also called Sample No. 360 Fc fragment
B8: E345R/E430G/S440Y (promote hexamer formation) Fc fragment with T394W/F405A, SEQ ID NO: 604 (other)
chain: B3 chain with F14L, E15L, S111P, E125R, E210G, S220Y
B9: IgG2 full-length heavy chain with K392L/T394W/F405A/Y407V (SEQ ID NO: 90) with light chain SEQ ID NO: 61 (antibody)
heavy: B1 heavy with R343E, R345Q, D358K, V364T, K390L, T392W, M397D, F403A, A405V, V407K
light: not shown
B10: IgG2 full-length heavy chain with Q347R/K360E/D399V/F405T/K409W (SEQ ID NO: 89) with light chain SEQ ID NO: 61 (antibody)
heavy: B1 heavy with R343E, D358E, V364T, M397V, F403T, A405Y, V407W
light: not shown
notes: also called Sample No. 210 full-length heavy chain
B11: IgG2 full-length heavy chain with T366W/L368A/Y407V (SEQ ID NO: 88) with light chain SEQ ID NO: 61 (antibody)
heavy: B1 heavy with R343E, R345Q, D358K, V364W, L366A, M397D, A405V, V407K
light: not shown
B12: IgG2 full-length heavy chain with T394W/F405A (SEQ ID NO: 87) with light chain SEQ ID NO: 61 (antibody)
heavy: B1 heavy with R343E, R345Q, D358K, V364T, T392W, M397D, F403A, A405Y, V407K
light: not shown
notes: also called Sample No. 208 full-length heavy chain
B13: IgG4 full-length heavy chain with T366W/L368A/Y407V (SEQ ID NO: 94) with light chain SEQ ID NO: 61 (antibody)
heavy: QVQLQESGPGLVRPSQTLSLTCTVSGYSITSDHAWSWVRQPPGRGLEWIGYISYSGITTYNPSLKSRVTMLRDTSKNQFSLRLSSVTAADTAVYYCARSLARTTAMDYWGQGSLVTVSSASTKGPSVFPLAPCSRSTSESTAALGCLVKDYFPEPVTVSWNSGALTSGVHTFPAVLQSSGLYSLSSVVTVPSSSLGTKTYTCNVDHKPSNTKVDKRVESKYGPPCPPCPAPEFLGGPSVFLFPPKPKDTLMISRTPEVTCVVVDVSQEDPEVQFNWYVDGVEVHNAKTKPREEQFNSTYRVVSVLTVLHQDWLNGKEYKCKVSNKGLPSSIEKTISKAKGQPREPQVYTLPPSQEEMTKNQVSLWCAVKGFYPSDIAVEWESNGQPENNYKTTPPVLDSDGSFFLVSRLTVDKSRWQEGNVFSCSVMHEALHNHYTQKSLSLSL
light: not shown
B14: IgG4 full-length heavy chain with T394W/F405A (SEQ ID NO: 93) with light chain SEQ ID NO: 61 (antibody)
heavy: B13 heavy with W365T, A367L, T393W, F404A, V406Y
light: not shown
B15: IgG4 full-length heavy chain K392D/D399K/R409D (SEQ ID NO: 97) with light chain SEQ ID NO: 61 (antibody)
heavy: B13 heavy with W365T, A367L, K391D, D398K, V406Y, R408D
light: not shown
B16: IgG4 full-length heavy chain K392L/T394W/F405A/Y407V (SEQ ID NO: 96) with light chain SEQ ID NO: 61 (antibody)
heavy: B13 heavy with W365T, A367L, K391L, T393W, F404A
light: not shown
B17: IgG4 full-length heavy chain Q347R/K360E/D399V/F405T/R409W (SEQ ID NO: 95) with light chain SEQ ID NO: 61 (antibody)
heavy: B13 heavy with Q346R, K359E, W365T, A367L, D398V, F404T, V406Y, R408W
light: not shown
B18: IgG1 full-length heavy chain E345R/K360E/D399M/Y407A/K409V (SEQ ID NO: 58) with light chain SEQ ID NO: 61 (antibody)
heavy: QVQLQESGPGLVRPSQTLSLTCTVSGYSITSDHAWSWVRQPPGRGLEWIGYISYSGITTYNPSLKSRVTMLRDTSKNQFSLRLSSVTAADTAVYYCARSLARTTAMDYWGQGSLVTVSSASTKGPSVFPLAPSSKSTSGGTAALGCLVKDYFPEPVTVSWNSGALTSGVHTFPAVLQSSGLYSLSSVVTVPSSSLGTQTYICNVNHKPSNTKVDKRVEPKSCDKTHTCPPCPAPELLGGPSVFLFPPKPKDTLMISRTPEVTCVVVDVSHEDPEVKFNWYVDGVEVHNAKTKPREEQYNSTYRVVSVLTVLHQDWLNGKEYKCKVSNKALPAPIEKTISKAKGQPRRPQVYTLPPSREEMTENQVSLTCLVKGFYPSDIAVEWESNGQPENNYKTTPPVLMSDGSFFLASVLTVDKSRWQQGNVFSCSVMHEALHNHYTQKSLSLSP
light: not shown
notes: also called Sample No. 230
B19: IgG1 full-length heavy chain E345R/Q347R/K360D/T366V/D399M/Y407A/K409V (SEQ ID NO: 55) with light chain SEQ ID NO: 61 (antibody)
heavy: B18 heavy with Q349R, E362D, T368V
light: not shown
B20: IgG1 full-length heavy chain E356K/D399K/K409E/K439E (SEQ ID NO: 36) with light chain SEQ ID NO: 61 (antibody)
heavy: B18 heavy with R347E, E358K, E362K, M401K, A409Y, V411E, K441E
light: not shown
B21: IgG1 full-length heavy chain E356K/K392D/D399K/K409D (SEQ ID NO: 56) with light chain SEQ ID NO: 61 (antibody)
heavy: B18 heavy with R347E, E358K, E362K, K394D, M401K, A409Y, V411D
light: not shown
notes: also called Sample No. 229
B22: IgG1 full-length heavy chain E356K/K392D/D399K/K439E (SEQ ID NO: 48) with light chain SEQ ID NO: 61 (antibody)
heavy: B18 heavy with R347E, E358K, E362K, K394D, M401K, A409Y, V411K, K441E
light: not shown
B23: IgG1 full-length heavy chain K392D/D399K/K409D (SEQ ID NO: 50) with light chain SEQ ID NO: 61 (antibody)
heavy: B18 heavy with R347E, E362K, K394D, M401K, A409Y, V411D
light: not shown
B24: IgG1 full-length heavy chain K392L/T394W/F405A/Y407V (SEQ ID NO: 41) with light chain SEQ ID NO: 61 (antibody)
heavy: B18 heavy with R347E, E362K, K394L, T396W, M401D, F407A, A409V, V411K
light: not shown
notes: also called Sample No. 225
B25: IgG1 full-length heavy chain Q347E/S354Y/T366Y/Y407T (SEQ ID NO: 39) with light chain SEQ ID NO: 61 (antibody)
heavy: B18 heavy with R347E, Q349E, S356Y, E362K, T368Y, M401D, A409T, V411K
light: not shown
B26: IgG1 full-length heavy chain Q347R/K360E/D399V/F405T/K409W (SEQ ID NO: 31) with light chain SEQ ID NO: 61 (antibody)
heavy: B18 heavy with R347E, Q349R, M401V, F407T, A409Y, V411W
light: not shown
B27: IgG1 full-length heavy chain T350V/L351Y/T366L/K392L/T394W/F405A/Y407V (SEQ ID NO: 60) with light chain SEQ ID NO: 61 (antibody)
heavy: QVQLQESGPGLVRPSQTLSLTCTVSGYSITSDHAWSWVRQPPGRGLEWIGYISYSGITTYNPSLKSRVTMLRDTSKNQFSLRLSSVTAADTAVYYCARSLARTTAMDYWGQGSLVTVSSASTKGPSVFPLAPSSKSTSGGTAALGCLVKDYFPEPVTVSWNSGALTSGVHTFPAVLQSSGLYSLSSVVTVPSSSLGTQTYICNVNHKPSNTKVDKRVEPKSCDKTHTCPPCPAPELLGGPSVFLFPPKPKDTLMISRTPEVTCVVVDVSHEDPEVKFNWYVDGVEVHNAKTKPREEQYNSTYRVVSVLTVLHQDWLNGKEYKCKVSNKALPAPIEKTISKAKGQPREPQVYVYPPSREEMTKNQVSLLCLVKGFYPSDIAVEWESNGQPENNYLTWPPVLDSDGSFALVSKLTVDKSRWQQGNVFSCSVMHEALHNHYTQKSLSLSP
light: not shown
B28: IgG1 full-length heavy chain T366W/L368A/Y407V (SEQ ID NO: 26) with light chain SEQ ID NO: 61 (antibody)
heavy: B27 heavy with V352T, Y353L, L368W, L370A, L394K, W396T, A407F
light: not shown

Experiments:
[1] = target: T1, IgG2 Fc fragment without modification (SEQ ID NO: 103) (Homo sapiens (Human), UniProt P01859 99-324 = IgG part); test: co-expression of full-length heavy chain, light chain and Fc fragment in Expi293F, affinity purification, SEC peak area ratio;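 also: purified antibodies analysed by size exclusion chromatography with UV detection at 215 nm, each species given as share of total chromatogram peak area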
T1 construct: Fc fragment co-expressed with a full-length heavy chain and the light chain; the associating unit is one Fc chain; also called WT-IgG2 Fc fragment

[2] = target: the molecule itself; test: as above
[3] = target: the molecule itself; test: SEC peak area ratio; full-length heavy chain, light chain and Fc fragment coexpressed in Expi293F, Protein A purified
[4] = target: the molecule itself; test: SEC peak area ratio after coexpression of full-length heavy chain, light chain and Fc fragment

Binder	Heteromultimer (%) [1]	Homo full-length heavy chain (%) [2]	Homo Fc fragment (%) [3]	Homo full-length heavy chain (%) [4]
B1	0%	76.1%		
B2	0%	76.3%		
B3			37.9%	
B4			39.3%	
B5			38.8%	
B6			37.7%	
B7			8.8%	
B8			13.9%	
B9				78.5%
B10				80.4%
B11				80%
B12				80.8%
B13				83%
B14				82%
B15	0%	82.5%		
B16	0%	81.5%		
B17	0%	83.5%		
B18	0%	84.3%		
B19	0%	83.5%		
B20	0%	84.3%		
B21	0%	81.4%		
B22	0%	85.1%		
B23	0%	81.4%		
B24	0%	83.8%		
B25	0%	82.9%		
B26	0%	82.7%		
B27	0%	85.8%		
B28	0%	85.3%		

Source: patent US20260217835A1 (published 2026)
